Measurements: patent US20250121089A1, “COMPOSITIONS AND METHODS FOR ENHANCING THE EFFECT OF A TROP-2 SPECIFIC THERAPEUTIC” (priority 2023, published 2025)

Tests used:
[1] = tested on: 4T1 cells; assay: Cytotoxic effect (cell count by flow cytometer), TTFields with or without Sacituzumab Govitecan; type: cell-based, mouse; conditions: concomitant with TTFields 1.62 V/cm RMS, 150 kHz, 72 h; FIG. 9
Method: (§1) Tests were performed on three different cell types: A549, A2780 and 4T1. A549 cells are adenocarcinomec human alveolar basal epithelial cells. A2780 is a human ovarian cancer cell line. 4T1 is a breast cancer cell line derived from the mammary gland tissue of a mouse BALB/c strain.
Mammary carcinoma cells 4T1 were treated for 72 h with TTFields at an intensity of 1.62 V/cm RMS and a frequency of 150 kHz using the Inovitro system. TTFields were applied to the cells in the absence or presence of the Trop2 inhibitor Sacituzumab Govitecan. Treated cells were counted using a flow cytometer, and cytotoxic effect was calculated relative to control cells.

[2] = tested on: A2780 cells; assay: Overall effect (cytotoxic x clonogenic effect), TTFields with or without Sacituzumab Govitecan; type: cell-based, human; conditions: concomitant with TTFields 1.62 V/cm RMS, 200 kHz, 72 h; re-plated, grown 7-14 days; FIG. 7
Method: as §1
Ovarian carcinoma cells A2780 were treated for 72 h with TTFields at an intensity of 1.62 V/cm RMS and a frequency of 200 kHz using the Inovitro system. TTFields were applied to the cells in the absence or presence of the Trop2 inhibitor Sacituzumab Govitecan. Treated cells were harvested, re-plated, and grown for an additional 7-14 days. Colonies were stained (0.5% crystal violet solution), counted, and clonogenic effect was calculated relative to control. Overall effect was calculated by multiplying the cytotoxic and clonogenic effects.

[3] = tested on: A2780 cells; assay: Cytotoxic effect (cell count by flow cytometer), TTFields with or without Sacituzumab Govitecan; type: cell-based, human; conditions: concomitant with TTFields 1.62 V/cm RMS, 200 kHz, 72 h; FIG. 6
Method: as §1
Ovarian carcinoma cells A2780 were treated for 72 h with TTFields at an intensity of 1.62 V/cm RMS and a frequency of 200 kHz using the Inovitro system. TTFields were applied to the cells in the absence or presence of the Trop2 inhibitor Sacituzumab Govitecan. Treated cells were counted using a flow cytometer, and cytotoxic effect was calculated relative to control cells.

[4] = tested on: A2780 cells; assay: Apoptosis, annexin V / 7AAD flow cytometry, TTFields with or without Sacituzumab Govitecan; type: cell-based, human; conditions: concomitant with TTFields 1.62 V/cm RMS, 200 kHz, 72 h, FIG. 8
Method: Tests were performed on three different cell types: A549, A2780 and 4T1. A549 cells are adenocarcinomec human alveolar basal epithelial cells. A2780 is a human ovarian cancer cell line. 4T1 is a breast cancer cell line derived from the mammary gland tissue of a mouse BALB/c strain. […] Ovarian carcinoma cells A2780 were treated for 72 h with TTFields at an intensity of 1.62 V/cm RMS and a frequency of 200 kHz using the Inovitro system. TTFields were applied to the cells in the absence or presence of the Trop2 inhibitor Sacituzumab Govitecan. Treated cells were double-stained with FITC-conjugated annexin V and 7-aminoactinomycin D (7AAD), and data acquisition was performed using a flow cytometer.

[5] = tested on: 4T1 cells; assay: as above; type: cell-based, mouse; conditions: concomitant with TTFields 1.62 V/cm RMS, 150 kHz, 72 h, FIG. 11
Method: Tests were performed on three different cell types: A549, A2780 and 4T1. A549 cells are adenocarcinomec human alveolar basal epithelial cells. A2780 is a human ovarian cancer cell line. 4T1 is a breast cancer cell line derived from the mammary gland tissue of a mouse BALB/c strain. Lastly, like A549 cells (FIGS. 5) and A2780 cells (FIG. 8), concomitant treatment of TTFields with Sacituzumab Govitecan enhanced the apoptotic effect in 4T1 cells (FIG. 11). Mammary carcinoma cells 4T1 were treated for 72 h with TTFields at an intensity of 1.62 V/cm RMS and a frequency of 150 kHz using the Inovitro system. TTFields were applied to the cells in the absence or presence of the Trop2 inhibitor Sacituzumab Govitecan. Treated cells were double-stained with FITC-conjugated annexin V and 7-aminoactinomycin D (7AAD), and data acquisition was performed using a flow cytometer. AnnexinV−7AAD−, live cells; AnnexinV+7AAD−, cells at early apoptosis; AnnexinV+7AAD+, cells at late apoptosis.

[6] = tested on: A549 cells; assay: Cytotoxic effect (cell count by flow cytometer), TTFields with or without Sacituzumab Govitecan; type: cell-based, human; conditions: concomitant with TTFields 1.62 V/cm RMS, 150 kHz, 72 h; FIG. 3
Method: as §1
NSCLC cells A549 were treated for 72 h with TTFields at an intensity of 1.62 V/cm RMS and a frequency of 150 kHz using the Inovitro system. TTFields were applied to the cells in the absence or presence of the Trop2 inhibitor Sacituzumab Govitecan. Treated cells were counted using a flow cytometer, and cytotoxic effect was calculated relative to control cells.

[7] = tested on: A549 cells; assay: Overall effect (cytotoxic x clonogenic effect), TTFields with or without Sacituzumab Govitecan; type: cell-based, human; conditions: concomitant with TTFields 1.62 V/cm RMS, 150 kHz, 72 h; re-plated, grown 7-14 days; FIG. 4
Method: as §1
NSCLC cells A549 were treated for 72 h with TTFields at an intensity of 1.62 V/cm RMS and a frequency of 150 kHz using the Inovitro system. TTFields were applied to the cells in the absence or presence of the Trop2 inhibitor Sacituzumab Govitecan. Treated cells were harvested, re-plated, and grown for an additional 7-14 days. Colonies were stained (0.5% crystal violet solution), counted, and clonogenic effect was calculated relative to control. Overall effect was calculated by multiplying the cytotoxic and clonogenic effects.

[8] = tested on: 4T1 cells; assay: as above; type: cell-based, mouse; conditions: concomitant with TTFields 1.62 V/cm RMS, 150 kHz, 72 h; re-plated, grown 7-14 days; FIG. 10
Method: as §1
Mammary carcinoma cells 4T1 were treated for 72 h with TTFields at an intensity of 1.62 V/cm RMS and a frequency of 150 kHz using the Inovitro system. TTFields were applied to the cells in the absence or presence of the Trop2 inhibitor Sacituzumab Govitecan. Treated cells were harvested, re-plated, and grown for an additional 7-14 days. Colonies were stained (0.5% crystal violet solution), counted, and clonogenic effect was calculated relative to control. Overall effect was calculated by multiplying the cytotoxic and clonogenic effects.

[9] = tested on: A549 cells; assay: Apoptosis, annexin V / 7AAD flow cytometry, TTFields with or without Sacituzumab Govitecan; type: cell-based, human; conditions: concomitant with TTFields 1.62 V/cm RMS, 150 kHz, 72 h, FIG. 5
Method: Tests were performed on three different cell types: A549, A2780 and 4T1. A549 cells are adenocarcinomec human alveolar basal epithelial cells. A2780 is a human ovarian cancer cell line. 4T1 is a breast cancer cell line derived from the mammary gland tissue of a mouse BALB/c strain. […] NSCLC cells A549 were treated for 72 h with TTFields at an intensity of 1.62 V/cm RMS and a frequency of 150 kHz using the Inovitro system. TTFields were applied to the cells in the absence or presence of the Trop2 inhibitor Sacituzumab Govitecan. Treated cells were double-stained with FITC-conjugated annexin V and 7-aminoactinomycin D (7AAD), and data acquisition was performed using a flow cytometer.

Substance: Sacituzumab Govitecan
- 4T1 cell growth (cytotoxic effect relative to control cells) [1]: synergistically inhibited
- overall effect in A2780 cells (cytotoxic x clonogenic effects) [2]: synergistically elevated
- A2780 cell growth (cytotoxic effect relative to control cells) [3]: synergistically inhibited
- apoptotic effect in A2780 cells [4]: enhanced
- apoptotic effect in 4T1 cells [5]: enhanced
- A549 cell growth (cytotoxic effect relative to control cells) [6]: synergistically inhibited
- overall effect in A549 cells (cytotoxic x clonogenic effects) [7]: synergistically elevated
- overall effect in 4T1 cells (cytotoxic x clonogenic effects) [8]: synergistically elevated
- apoptotic effect in A549 cells [9]: enhanced
